{"source": "paper PMC8639797", "about": "(Nature, 2021)", "key": {"AUC": {"molecular_target": "the molecule itself", "test": "AUC"}, "[1]": {"molecular_target": "ALK-ECR^ABR−4M (T686A/N787A/Q788A/I795A) (human, UniProt Q9UM73 673-1025, T686A | N787A | Q788A | I795A)", "test": "SEC-MALS + AUC"}, "SEC-MALS + AUC": {"molecular_target": "the molecule itself", "test": "SEC-MALS + AUC"}, "[2]": {"molecular_target": "ALK-ECR^ABR (residues 673–1025) (human)", "test": "SEC-MALS"}}}
{"binder": "MBP-ALKAL2^C66Y (ligand, human) AEPREPADGQALLRLVVELVQELRKHHSAEHKGLQLLGRDYALGRAEAAGLGPSPEQRVEIVPRDLRMKDKFLKHLTGPLYFSPKCSKHFHRLYHNTRDCTIPAYYKRCARLLTRLAVSPVCMEDKQ", "values": [{"measurement": "Kd", "setting": "AUC", "result": "38 ± 6", "unit": "µM"}]}
{"binder": "ALKAL2^2M (full-size ALKAL2^C66Y with I127A/Y130A) (ligand, human, UniProt Q6UX46 26-152, looked up) AEPREPADGQALLRLVVELVQELRKHHSAEHKGLQLLGRDYALGRAEAAGLGPSPEQRVEIVPRDLRMKDKFLKHLTGPLYFSPKCSKHFHRLYHNTRDCTAPAAYKRCARLLTRLAVSPVCMEDKQ", "values": [{"measurement": "stoichiometry N", "setting": "[1]", "result": 1}]}
{"binder": "ALK-ECR^ABR–ALKAL2^C66Y 1:1 heterodimeric complex (complex, human) chain 1: QTPIFDPTVHWLFTTCGASGPHGPTQAQCNNAYQNSNLSVEVGSEGPLKGIQIWKVPATDTYSISGYGAAGGKGGKNTMMRSHGVSVLGIFNLEKDDMLYILVGQQGEDACPSTNQLIQKVCIGENNVIEEEIRVNRSVHEWAGGGGGGGGATYVFKMKDGVPVPLIIAAGGGGRAYGAKTDTFHPERLENNSSVLGLNGNSGAAGGGGGWNDNTSLLWAGKSLQEGATGGHSCPQAMKKWGWETRGGFGGGGGGCSSGGGGGGYIGGNAASNNDPEMDGEDGVSFISPLGILYTPALKVMEGHGEVNIKHYLNCSHCEVDECHMDPESHKVICFCDHGTVLAEDGVSCIVSP chain 2: AEPREPADGQALLRLVVELVQELRKHHSAEHKGLQLLGRDYALGRAEAAGLGPSPEQRVEIVPRDLRMKDKFLKHLTGPLYFSPKCSKHFHRLYHNTRDCTIPAYYKRCARLLTRLAVSPVCMEDKQ", "values": [{"measurement": "Kd", "setting": "SEC-MALS + AUC", "result": "~3.2", "unit": "µM"}]}
{"binder": "ALKAL2^C66Y (full-size, MBP removed) (ligand, human) AEPREPADGQALLRLVVELVQELRKHHSAEHKGLQLLGRDYALGRAEAAGLGPSPEQRVEIVPRDLRMKDKFLKHLTGPLYFSPKCSKHFHRLYHNTRDCTIPAYYKRCARLLTRLAVSPVCMEDKQ", "values": [{"measurement": "stoichiometry N", "setting": "[2]", "result": 1}]}
{"binder": "ALK ECR^ABR−4M:ALKAL2^2M 1:1 complex (complex, human) chain 1: QTPIFDPTVHWLFATCGASGPHGPTQAQCNNAYQNSNLSVEVGSEGPLKGIQIWKVPATDTYSISGYGAAGGKGGKNTMMRSHGVSVLGIFNLEKDDMLYILVGQQGEDACPSTAALIQKVCAGENNVIEEEIRVNRSVHEWAGGGGGGGGATYVFKMKDGVPVPLIIAAGGGGRAYGAKTDTFHPERLENNSSVLGLNGNSGAAGGGGGWNDNTSLLWAGKSLQEGATGGHSCPQAMKKWGWETRGGFGGGGGGCSSGGGGGGYIGGNAASNNDPEMDGEDGVSFISPLGILYTPALKVMEGHGEVNIKHYLNCSHCEVDECHMDPESHKVICFCDHGTVLAEDGVSCIVSP chain 2: AEPREPADGQALLRLVVELVQELRKHHSAEHKGLQLLGRDYALGRAEAAGLGPSPEQRVEIVPRDLRMKDKFLKHLTGPLYFSPKCSKHFHRLYHNTRDCTAPAAYKRCARLLTRLAVSPVCMEDKQ", "values": [{"measurement": "fold reduction of dimerization to the 2:2 complex against the wild-type complex", "setting": "SEC-MALS + AUC", "result": 5, "unit": "fold"}]}
